Reference: patent US20130089513A1 (MEDEXGEN, published 2013)

T1: G-CSF receptor linked to Fc domain of human IgG (human, UniProt Q99062 25-627, limits assumed)
T1 sequence (looked up): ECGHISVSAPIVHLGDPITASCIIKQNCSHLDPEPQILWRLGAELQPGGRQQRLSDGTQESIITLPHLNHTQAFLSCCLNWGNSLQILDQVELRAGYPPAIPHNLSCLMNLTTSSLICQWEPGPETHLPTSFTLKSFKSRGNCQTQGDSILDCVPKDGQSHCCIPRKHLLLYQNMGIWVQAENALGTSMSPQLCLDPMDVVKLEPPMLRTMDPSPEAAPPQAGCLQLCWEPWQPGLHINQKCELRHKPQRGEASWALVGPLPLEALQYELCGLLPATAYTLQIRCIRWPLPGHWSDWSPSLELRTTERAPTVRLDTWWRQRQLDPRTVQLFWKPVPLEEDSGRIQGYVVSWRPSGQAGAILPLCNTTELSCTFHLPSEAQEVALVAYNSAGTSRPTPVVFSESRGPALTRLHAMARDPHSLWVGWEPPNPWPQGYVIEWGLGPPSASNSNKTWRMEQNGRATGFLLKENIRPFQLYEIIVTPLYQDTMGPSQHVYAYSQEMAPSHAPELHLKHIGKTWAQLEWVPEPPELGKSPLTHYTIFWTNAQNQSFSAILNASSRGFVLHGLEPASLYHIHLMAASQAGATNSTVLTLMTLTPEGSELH


molecular target: T1, G-CSF receptor linked to Fc domain of …; experiment: ELISA on coated G-CSF receptor-Fc, done like the TPO ELISA

| Binder | EC50 (read off the curve) [µg/mL] |
| --- | --- |
| wild type G-CSF (ligand, cDNA from leukocytes of healthy people; expressed in CHO-K1 cells; also called G-CSF wild type) TPLGPASSLPQSFLLKCLEQVRKIQGDGAALQEKLCATYKLCHPEELVLLGHSLGIPWAPLSSCPSQALQLAGCLSQLHSGLFLYQGLLQALEGISPELGPTLDTLQLDVADFATTIWQQMEELGMAPALQPTQGAMPAFASAFQRRAGGVLVASHLQSFLEVSYRVLRHLAQP | ~0.04 |
| G-CSF-[F160V] (ligand, G-CSF mutein expressed in CHO-K1 cells) TPLGPASSLPQSFLLKCLEQVRKIQGDGAALQEKLCATYKLCHPEELVLLGHSLGIPWAPLSSCPSQALQLAGCLSQLHSGLFLYQGLLQALEGISPELGPTLDTLQLDVADFATTIWQQMEELGMAPALQPTQGAMPAFASAFQRRAGGVLVASHLQSVLEVSYRVLRHLAQP | ~0.04 |
| G-CSF F13V (ligand, used as CHO-K1 culture supernatant) cytokine chain: TPLGPASSLPQSVLLKCLEQVRKIQGDGAALQEKLCATYKLCHPEELVLLGHSLGIPWAPLSSCPSQALQLAGCLSQLHSGLFLYQGLLQALEGISPELGPTLDTLQLDVADFATTIWQQMEELGMAPALQPTQGAMPAFASAFQRRAGGVLVASHLQSFLEVSYRVLRHLAQP | ~0.03 |
| G-CSF F113V (ligand, used as CHO-K1 culture supernatant) cytokine chain: TPLGPASSLPQSFLLKCLEQVRKIQGDGAALQEKLCATYKLCHPEELVLLGHSLGIPWAPLSSCPSQALQLAGCLSQLHSGLFLYQGLLQALEGISPELGPTLDTLQLDVADVATTIWQQMEELGMAPALQPTQGAMPAFASAFQRRAGGVLVASHLQSFLEVSYRVLRHLAQP | ~0.06 |
| G-CSF-[F140V] (ligand, G-CSF mutein expressed in CHO-K1 cells; also called G-CSF-[F140VD]) TPLGPASSLPQSFLLKCLEQVRKIQGDGAALQEKLCATYKLCHPEELVLLGHSLGIPWAPLSSCPSQALQLAGCLSQLHSGLFLYQGLLQALEGISPELGPTLDTLQLDVADFATTIWQQMEELGMAPALQPTQGAMPAVASAFQRRAGGVLVASHLQSFLEVSYRVLRHLAQP | ~0.06 |
